The record followed here is patent US20220339183.

The target in the series is human non-mutant tau (transgene of Alz17 mice), P10636.
human non-mutant tau (transgene of Alz17 mice), P10636, sequence (P10636 whole entry, looked up, change not shown): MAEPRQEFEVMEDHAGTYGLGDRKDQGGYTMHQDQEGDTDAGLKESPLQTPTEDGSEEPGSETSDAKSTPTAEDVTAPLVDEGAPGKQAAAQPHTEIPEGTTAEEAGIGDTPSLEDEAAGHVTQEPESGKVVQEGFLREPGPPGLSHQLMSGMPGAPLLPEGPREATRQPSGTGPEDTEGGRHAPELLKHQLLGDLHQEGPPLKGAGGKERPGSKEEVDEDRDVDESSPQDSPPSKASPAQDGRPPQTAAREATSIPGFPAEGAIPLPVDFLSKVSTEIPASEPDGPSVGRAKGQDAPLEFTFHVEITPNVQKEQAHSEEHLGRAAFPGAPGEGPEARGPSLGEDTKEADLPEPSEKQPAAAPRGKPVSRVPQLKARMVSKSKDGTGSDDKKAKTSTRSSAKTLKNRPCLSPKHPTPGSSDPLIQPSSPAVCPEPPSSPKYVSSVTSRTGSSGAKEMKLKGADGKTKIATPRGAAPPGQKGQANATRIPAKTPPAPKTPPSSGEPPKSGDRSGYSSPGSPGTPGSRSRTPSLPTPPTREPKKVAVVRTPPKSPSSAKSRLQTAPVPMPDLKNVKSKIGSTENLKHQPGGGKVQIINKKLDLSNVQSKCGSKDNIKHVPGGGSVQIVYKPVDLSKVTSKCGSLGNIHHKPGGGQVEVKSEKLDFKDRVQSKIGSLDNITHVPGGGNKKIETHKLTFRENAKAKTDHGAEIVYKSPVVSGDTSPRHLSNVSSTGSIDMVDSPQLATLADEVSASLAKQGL

B1: endogenous mouse p38γ (protein)
chain: MSSPPPARKGFYRQEVTKTAWEVRAVYQDLQPVGSGAYGAVCSAVDSRTGNKVAIKKLYRPFQSELFAKRAYRELRLLKHMRHENVIGLLDVFTPDESLDDFTDFYLVMPFMGTDLGKLMKHETLSEDRIQFLVYQMLKGLKYIHAAGVIHRDLKPGNLAVNEDCELKILDFGLARQADSEMTGYVVTRWYRAPEVILNWMRYTQTVDIWSVGCIMAEMITGKILFKGNDHLDQLKEIMKITGTPPPEFVQKLQSAEAKNYMEGLPELEKKDFASVLTNASPQAVNLLERMLVLDAEQRVTAAEALTHPYFESLRDTEDEPKAQKYDDSFDDVDRTLEEWKRVTYKEVLSFKPPRQLGARVPKETAL
Consider B1, for which the “Western blotting of synaptosome preparations from mouse brains for pT205 tau” value is on record as “phosphorylation of tau at T205 was no longer detectable in Alz17.p38γ^-/- mice that also lacked p38γ in their post-synapses”.

B2: constitutively active p38γ (p38γ^CA; p38γ Asp179Ala), HA-tagged (protein)
chain: MSSPPPARSGFYRQEVTKTAWEVRAVYRDLQPVGSGAYGAVCSAVDGRTGAKVAIKKLYRPFQSELFAKRAYRELRLLKHMRHENVIGLLDVFTPDETLDDFMDFYLVMPFMGTDLGKLMKHEKLGEDRIQFLVYQMLKGLRDLKPGNLAVNEDCELKILDFGLARQAASEMTGYVVTRWYRAPEVILNWMRYTQTVDIWSVGCIMAEMITGKTLFKGSDHLDQLKEIMKVTGTPPAEFVQRLQSDEAKNYMKGLPELEKKDFASILTNASPLAVNLLEKMLVLDAEQRVTAGEALAHPYFESLHDTEDEPQVQKYDDSFDDVDRTLDEWKRVTYKEVLSFKPPRQLGARVSKETPL
As to B2, the “Immunofluorescence staining of brains with antibodies to tau and tau phosphorylated at T205” value was “increased T205 tau phosphorylation in Alz17.p38γ^CA mice compared with Alz17 mice”; the “Western blotting of synaptosome preparations from mouse brains for pT205 tau” value is given as “increased phosphorylation of tau at T205 in the post-synapse of Alz17.p38γ^CA mice as compared with Alz17.p38γ^+/+ controls”.
